The text below walks through data of paper PMC3357956 (Nature structural & molecular biology, 2011).

This data set deals with the molecule itself. As to the kind of experiment: thioflavin T fluorescence.

B1: wild-type TDP46mer (synthetic TDP-43 peptide Gln286-Gln331) (peptide, UniProt Q13148 286-331, looked up)
peptide: QGGFGNSRGGGAGLGNNQGSNMGGGMNFGAFSINPAMMAAAQAALQ
B1: the binding result was “binds”.
